Series [1] has as its system HT29 tumor. The series can be described thus: Antitumor efficacy, HT29 xenograft. The format is in vivo, mouse. As to conditions: i.v. five times every 2 days, DOX-TTPNs 30 mg/kg, DOX 0.4 mg/kg, DOX-FTNs 15 mg/kg, empty TTPNs 30 mg/kg.
The test system of series [2] is cleaved form of caspase-3. The series can be described thus: Western blot of HT29 lysates: cleaved caspase-3. It counts as cell-based, human. As to conditions: HT29, 50 nM, 24 hours. The method, then: (§1) After incubating HT29 cells with 50 nM DOX-TTPNs, DOX-FTNs, free DOX, or buffer for 24 hours, cells were lysed with radioimmunoprecipitation assay (RIPA) buffer (Cell Signaling Technology) and the concentration of proteins was measured using a DC protein assay kit (Bio-Rad). Equal amounts of proteins (30 μg) were resolved by SDS-PAGE and transferred to nitrocellulose membranes. After blocking with 5% skim milk in Tris-buffered saline containing 0.1% Tween-20 (TBST), membranes were incubated first with anti-Cl-PARP, anti-Cl-caspase-6, anti-cFLIP, anti-Bcl-xL, anti-XIAP, anti-Cl-caspase-3, or anti-GAPDH primary antibody (Cell Signaling Technology), and then with anti-mouse or anti-rabbit secondary antibodies (Sigma-Aldrich), as appropriate. Immunoreactive proteins were visualized using enhanced chemiluminescence (ECL) chemical reagents (Bio-Rad) and ChemiDoc (Bio-Rad), and were analyzed using ImageJ software.

In series [3] the test system is XIAP. The series can be described thus: Western blot of HT29 lysates: XIAP. The format is cell-based, human. To be noted: HT29, 24 hours. The procedure: as §1
Series [4] has as its system PARP. Briefly: Western blot of HT29 lysates: PARP. It counts as cell-based, human. To be noted: HT29, 24 hours. The procedure: as §1
In general terms: Immunoblotting shows a protein as a band on a membrane.

Series [5] deals with HT29 cells. Briefly: Annexin V early apoptosis flow cytometry, HT29. As to conditions: HT29, low concentrations, 24 hours. The format is cell-based, human. The method, then:
(§2) HepG2, HT29, or MCF7 cells (1.5×10^4) were cultured in a 96-well plate for 1 day, after which DOX-TTPNs, DOX-FTNs, free DOX, empty TTPNs, or buffer was added to each well. After 24 hours, cell viability was measured using a CCK-8 assay (Dojindo Molecular Technologies) according to the manufacturer's instructions. For analysis of early apoptosis, HT29 cells in 6-18 well culture plate were treated with DOX-TTPNs, free DOX, empty TTPNs, or buffer for 24 hours. Thereafter, cells were incubated with Alexa Fluor 488-conjugated annexin V (Invitrogen) 20 for 15 minutes, then analyzed using an Accuri™ C6 flow cytometer (BD Biosciences) and FlowJo 21 v10 software.

The test system of series [6] is HT29 tumor. The series can be described thus: TUNEL analysis of HT29 tumor tissue. The format is in vivo, mouse. To be noted: HT29 tumor tissue at the end of the study.
For series [7] the following is noted: mice (Chatterjee et al.); cited from earlier work.
Series [8] has as its system DR5. Briefly: Western blot time course of DR5 levels in HT29. It counts as cell-based, human. To be noted: HT29, 4, 12 and 24 hours.
Series [9] has as its system HT29 cells. Briefly: Cell viability, CCK-8 assay, HT29. It counts as cell-based, human. To be noted: HT29, 250 nM (DOX 3.5 μg/ml), 24 hours. The method, then:
as §2
On the technique in general: Tetrazolium dyes change colour on reduction, which living cells bring about.

Series [10] concerns HepG2 cells. Briefly: Cell viability, CCK-8 assay, HepG2. The format is cell-based, human. As to conditions: HepG2. The method, then:
After culturing for 24 hours, cell viability was measured using a cell counting kit (CCK)-8 assay (Dojindo Molecular Technologies, Gaithersburg, Md.). The plate was then read with an absorbance microplate reader (Spectramax 340, Molecular Devices Corporation) at a wavelength of 450 nm and 50% effective by regression analysis using SigmaPlot software (Systat Software, Inc., San Jose, Calif.). The concentration value was calculated.

Series [11] concerns HepG2 cells. The series can be described thus: Annexin V/PI flow cytometry of apoptosis, HepG2. The format is cell-based, human. To be noted: for surviving tumor cells (Annexin V/PI double negative): 24 hours. The method, then: FIG. 19 is a series of histograms representing flow cytometry analysis of TRAIL-mediated apoptosis of HepG2 cells as an analysis of in vitro TTPN-mediated apoptosis on TRAIL-sensitive-HepG2 cells. Cells were incubated for 24 hours in the presence of different concentrations of mTRAIL and TTPN and analyzed by Annexin V/PI double staining.
In addition, to investigate whether apoptosis induced by TTPN is induced by the pro-apoptosis pathway of tumor cells, fluorescence-activated cell sorting (FACS) using double staining of Annexin V/propidium iodide (PI) was performed. […] (FIG. 21).

For series [12] the following is noted: within 21 days (Kih et al.); cited from earlier work.
Series [13] has as its target TRAIL R1 (death receptor 4, DR4) on the surface of tumor cells (human, UniProt O00220 24-468). Briefly: cell-based or functional assay.
Series [14] deals with TRAIL R2 (death receptor 5, DR5) on the surface of tumor cells (human, UniProt O14763 56-440). Briefly: cell-based or functional assay.
The target of series [15] is T1, DR5 (Homo sapiens, UniProt O14763).
T1 construct: purchased R&D systems 631-T2-100
Briefly: SPR binding to immobilized DR5-Fc. The procedure:
(§3) Binding experiments of TTPN and mTRAIL to TRAIL receptors DR4 and DR5 were analyzed at 25° C. using a surface plasmon resonance apparatus (SR7500 DC, Reichert Inc., NY, USA). DR4 and DR5-fc chimeric proteins (R&D systems 347-DR-100, 631-T2-100) were immobilized on the surface of the Planar Protein A sensor chip (Reichert, 13206069) and the receptors were coated at a level of 300 to 500 resonance units. SPR kinetic titrations were performed by adding 250 μl of TTPN and mTRAIL with different concentrations in the range of 1.56 to 400 nM and 0.1 to 25.6 μM, respectively, increasing by four times. Each analyte was run at 50 μL/min using running and sample buffer (0.5 M Tris-HCl (pH 7.4), 150 mM NaCl, 0.005% Tween 20), and binding of the ligand to the receptor was performed and monitored in real time. For titration sensorgrams, a simple 1:1 Langmuir interaction model (A+B↔AB) was applied using the data analysis program Scrubber 2.0 (BioLogic Software, Australia, and KaleidaGraph Software, Australia) and CLAMP software.
(§4) The affinity KD was determined from the formula of KD=kd/ka. Results are based on representative sensorgrams obtained from saturation binding reactions averaged over at least three independent runs of SPR measurements (FIG. 31).
(In SPR one partner is held on a chip, and binding of the other changes the refractive index at the surface.)

Series [16] has as its target T2, DR4-Fc chimeric protein (R&D systems 347-DR-100) (UniProt O00220 24-239).
T2 construct: Bought (R&D systems 347-DR-100); Captured on a Protein A sensor chip; also called TRAIL R1; death receptor 4; Fc part of the bought chimera not given
Briefly: SPR, DR4-Fc captured on Protein A chip, 25° C., 1:1 Langmuir model. The method, then: DR4 and DR5-fc chimeric proteins (R&D systems 347-DR-100, 631-T2-100) were immobilized on the surface of the Planar Protein A sensor chip (Reichert, 13206069) and the receptors were coated at a level of 300 to 500 resonance units. […] Each analyte was run at 50 μL/min using running and sample buffer (0.5 M Tris-HCl (pH 7.4), 150 mM NaCl, 0.005% Tween 20), and binding of the ligand to the receptor was performed and monitored in real time. For titration sensorgrams, a simple 1:1 Langmuir interaction model (A+B↔AB) was applied using the data analysis program Scrubber 2.0 (BioLogic Software, Australia, and KaleidaGraph Software, Australia) and CLAMP software.
The affinity KD was determined from the formula of KD=kd/ka.

In series [17] the test system is HepG2 tumor. Briefly: Antitumor efficacy, HepG2 xenograft. It counts as in vivo, mouse. As to conditions: i.v. every 2 days, TTPN 23 mg/kg, mTRAIL 12 mg/kg. From the text: (§5) In the evaluation of the anti-tumor effect of the present invention, BALB/c nude male mice (6-7 weeks old) were used as an animal model. Particularly, HT29 cells (5×10^6) and HepG2 cells (5×10^6) were subcutaneously inoculated into the left dorsal flank of BALB/c nude mice, respectively. After a volume of tumors reached ˜80-100 mm^3, mice were randomly divided into the 14 following five treatment groups (6 mice/group); DOX-TTPNs, DOX-FTNs, free DOX, empty TTPNs, and buffer. Mice were intravenously injected five times, once every 2 days, and volume of tumors was determined as 1/2(Length×Width^2). Apoptotic cell death in tumor tissues was analyzed using TUNEL staining (In situ Cell Death Detection kit; Roche), and cells were stained with DAPI (4′,6-diamidino-2-phenylindole), as previously described (Kih et al., Biomaterials 180: 67-77, 2018). Apoptotic cells were visualized under a Nikon Eclipse Ti microscope (Nikon) and quantified as the number of TUNEL-positive cells per total number of cells using ImageJ software. After 21 days from injecting tumor cells, tumor tissues were excised from the experimental mice, and cryo-sections (3.5 μm) were fixed with 10% neutral buffered formalin and paraffin-embedded tissue blocks.
(§6) In addition, to investigate whether tumor growth inhibition by TTPN is induced by apoptosis-inducing activity on tumor cells, tumor tissues from the treated mice were analyzed. On the 15th day after the first injection, mice were euthanized, and apoptosis of tumor tissues was analyzed using terminal deoxynucleotidyl transferase dUTP nick end labeling (TUNEL) staining.

Series [18] has as its target T3, DR4 (Homo sapiens, UniProt O00220).
T3 construct: purchased R&D systems 347-DR-100
The series can be described thus: SPR binding to immobilized DR4-Fc. To be noted: DR4-Fc immobilized, 25° C. The procedure: as §3, §4

Series [19] can be described thus: In vitro stability (soluble protein in buffer over time). It counts as physicochemical. The method, then: The stability of TTPN, DOX-TTPN and mTRAIL was investigated by measuring changes of concentration in a suitable buffer solution. […] At predetermined times, aggregated proteins were collected at 13,000 rpm for 10 minutes, and the concentration of soluble DOX-TTPN and TTPN in the supernatant was measured using absorbance in UV280.

The subject of series [20] is HepG2 tumor. The series can be described thus: TUNEL analysis of HepG2 tumor tissue. The format is in vivo, mouse. To be noted: 15th day after first injection.
Excerpt: as §5, with “After 21 days from injecting tumor cells, tumor tissues were excised from the experimental mice, and cryo-sections (3.5 μm) were fixed with 10% neutral buffered formalin and paraffin-embedded tissue blocks.” left out
as §6

What is called Kd is the constant that tells how readily two partners part at equilibrium. As a reminder, the koff is the rate constant with which the complex falls apart. A word on the kon: it is the rate constant with which the complex forms. Read a high kon as fast association.

For the molecule `COc1cccc2c1C(=O)c1c(O)c3c(c(O)c1C2=O)C[C@@](O)(C(=O)CO)C[C@@H]3O[C@H]1C[C@H](N)[C@H](O)[C@H](C)O1` [free DOX, doxorubicin, reference compound], in series [1], the “decrease of tumor volumes” value is “no significant tumor-inhibition effect”. The “cleaved caspase-3 (and PARP) expression” value in [2] is on record as “little change”. In addition, the “decrease in XIAP levels compared with buffer treatment” value in [3] turned out to be 34 fold. Moreover, the “increase in PARP relative to buffer-treated controls (defined as 1)” value in [4] came out at 811 fold. Also, the “induction of early apoptosis” value in series [5] is recorded as “ineffective in inducing apoptosis”. This molecule also had a TUNEL-positive tumor cells in series [6] of 0.07%. The “dose at which side effects can be exhibited” value in series [7] is reported as “greater than 1 mg/kg”. In [8], the “DR5 expression levels over time” value is reported as “substantial increase in DR5 expression at 4 hours”. For the same molecule, the “cell death compared with controls” value in [9] came out at 36%.

B1: monomeric TRAIL (mTRAIL) extracellular domain (ligand)
chain: MTSEETISTVQEKQQNISPLVRERGPQRVAAHITGTRGRSNTLSSPNSKNEKALGRKINSWESSRSGHSFLSNLHLRNGELVIHEKGFYYIYSQTYFRFQEEIKENTKNDKQMVQYIYKYTSYPDPILLMKSARNSCWSKDAEYGLYSIYQGGIFELKENDRIFVSVTNEHLIDMDHEASFFGAFLVG
notes: Expressed in E. coli from pET28a-mTRAIL and purified on Ni-NTA; a vector tag is not spelled out
Regarding B1, the “IC50 relative to TTPN” value in [10] came out at 30 times. The “surviving tumor cells (Annexin V/PI double negative)” value was found to be 94.3% in series [11] (HepG2, 0.4 nM) and 82.9% in series [11] (HepG2, 100 nM). Also, the “concentration at which Annexin V-positive cells were detected” value in series [11] (HepG2, 24 hours (FIG. 20)) was found to be 25 nM. Also, in series [12], the “fraction showing rapid aggregation” value was approximately 50%. Also, the “IC50, cell viability of HepG2 cells (CCK-8, 24 hours)” value in series [13] and in [14] was 405 nM in each case. Moreover, the ka in [15] (25° C.) is recorded as 1.48 (±0.12) · 10^3 M^−1 · S^−1; in [18], 8.68 (±7.12) · 10^2 M^−1 · S^−1. Moreover, the kd in series [15] (25° C.) is reported as 3.87 (±1.13) · 10^−5 s^−1; in series [18], 5.27 (±2.14) · 10^−5 s^−1. Further, the dissociation constant Kd worked out at 25.4 nM in series [15] (KD=kd/ka) and 247 nM in series [16]. In [16], this molecule registered a koff of 5.27e-05 s⁻¹. This molecule also yielded a kon in series [16] of 868 M⁻¹ s⁻¹. Further, in [17], the “inhibition of tumor volume” value turned out to be 25.98%. Besides, the “stability in solution” value in series [19] (15 mg/mL in PBS buffer for 24 hours (FIG. 15)) is “precipitated and aggregated rapidly”. Further, the “amount in the soluble form, of the initial concentration” value in series [19] (within 2 days, 10 mg/mL (FIG. 16)) is on record as 57%. For the same molecule, the TUNEL-positive tumor cells in series [20] stood at 18.9%.
